Laboratory results as given in US20230174626A1.

Legend:
[1] = biological target: HCMV gH/gL/gO protein complex (Human Cytomegalovirus (HCMV)); assay: SPR Biacore 8K+, single-cycle kinetics, IgG captured on Protein A chip, gH/gL/gO as analyte, 1:1 fit
[2] = biological target: HCMV Pentamer protein complex (gH/gL/UL128/UL130/UL131A) (Human Cytomegalovirus (HCMV)); assay: SPR Biacore 8K+, single-cycle kinetics, IgG captured on Protein A chip, Pentamer as analyte, 1:1 fit
HCMV Pentamer protein complex (gH/gL/UL128/UL130/UL131A) (Human Cytomegalovirus (HCMV)), sequence (Q6SW67 24-719, chain 1 of 4): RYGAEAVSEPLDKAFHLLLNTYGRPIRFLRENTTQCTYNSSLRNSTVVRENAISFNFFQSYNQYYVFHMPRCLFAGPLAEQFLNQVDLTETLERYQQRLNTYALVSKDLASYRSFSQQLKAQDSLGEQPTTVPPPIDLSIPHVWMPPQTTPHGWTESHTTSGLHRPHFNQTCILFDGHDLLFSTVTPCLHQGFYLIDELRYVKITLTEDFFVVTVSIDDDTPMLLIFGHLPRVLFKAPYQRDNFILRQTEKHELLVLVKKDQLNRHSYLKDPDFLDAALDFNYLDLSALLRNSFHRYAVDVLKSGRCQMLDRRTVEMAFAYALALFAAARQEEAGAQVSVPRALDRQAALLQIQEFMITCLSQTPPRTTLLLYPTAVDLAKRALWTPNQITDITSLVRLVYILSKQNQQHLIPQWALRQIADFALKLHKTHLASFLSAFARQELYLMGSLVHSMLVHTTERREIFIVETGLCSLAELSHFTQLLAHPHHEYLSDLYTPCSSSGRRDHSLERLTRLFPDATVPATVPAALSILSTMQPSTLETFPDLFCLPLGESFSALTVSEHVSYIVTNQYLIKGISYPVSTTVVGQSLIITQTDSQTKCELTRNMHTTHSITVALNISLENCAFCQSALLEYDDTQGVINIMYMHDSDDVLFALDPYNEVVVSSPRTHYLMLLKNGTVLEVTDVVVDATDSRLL
HCMV Pentamer protein complex (gH/gL/UL128/UL130/UL131A) (Human Cytomegalovirus (HCMV)), sequence (F5HCH8 31-278, chain 2 of 4, further chain): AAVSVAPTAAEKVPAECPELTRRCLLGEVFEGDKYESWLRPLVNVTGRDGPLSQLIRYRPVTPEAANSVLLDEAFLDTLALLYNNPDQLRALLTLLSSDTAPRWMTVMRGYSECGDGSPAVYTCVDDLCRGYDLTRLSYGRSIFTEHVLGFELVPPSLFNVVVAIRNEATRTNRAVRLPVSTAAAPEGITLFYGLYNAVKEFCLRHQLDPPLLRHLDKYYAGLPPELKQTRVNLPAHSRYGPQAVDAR
HCMV Pentamer protein complex (gH/gL/UL128/UL130/UL131A) (Human Cytomegalovirus (HCMV)), sequence (P16837 28-171, chain 3 of 4, further chain): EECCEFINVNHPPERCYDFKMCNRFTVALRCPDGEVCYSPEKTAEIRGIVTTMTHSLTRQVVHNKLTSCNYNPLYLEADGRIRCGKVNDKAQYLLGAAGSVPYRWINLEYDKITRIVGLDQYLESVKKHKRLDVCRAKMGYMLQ
HCMV Pentamer protein complex (gH/gL/UL128/UL130/UL131A) (Human Cytomegalovirus (HCMV)), sequence (F5HCP3 26-214, chain 4 of 4, further chain): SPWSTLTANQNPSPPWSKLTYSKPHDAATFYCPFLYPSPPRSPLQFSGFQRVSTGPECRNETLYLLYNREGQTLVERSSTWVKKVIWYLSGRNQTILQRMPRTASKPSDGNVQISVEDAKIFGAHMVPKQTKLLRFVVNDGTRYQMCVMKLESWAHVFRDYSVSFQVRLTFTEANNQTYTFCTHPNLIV

B1: humanized 2C7 mAb (antibody, human IgG1, kappa, V domains shown)
VH: EVQLQQSGPELEKPGASVKISCKASGYSFTGYNMNWVKQSNGKSLEWIGNIDPYFGGTSYNQKFKGKATLTVDKSSSTAYMELKSLTSEDSAVYYCARHYGYFPWFAYWGQGTLVTVSA
VL: DIVLTQSPASLAVSLGQRATISCRASESVDSSGNSFMHWYQQKPGQPPKLLIYRASNLESGIPARFSGSGSRTDFTLTINPVGADDVATYYCQQSNEDPWTFGGGTKLEIKR
Kd [1]: 1 nM
koff [1]: 0.000416 s⁻¹
kon [1]: 415000 M⁻¹ s⁻¹
Kd [2]: 0.721 nM
koff [2]: 0.000322 s⁻¹
kon [2]: 447000 M⁻¹ s⁻¹

B2: humanized 26B6 mAb (antibody, human IgG1, kappa, V domains shown)
VH: EVQLVESGGGLVKPGGSLKLSCAASGFTITDYYIYWLRQTPEKKLEWVAAISDGGRYTDYPDSVKGRFTMSSDNAKTNLYLQMGSLQSDDTGMYYCARWASYGYHWYFDVWGAGTTVTVSS
VL: DIQMTQTTSSLSASLGDRVTISCSASQDISNYINWYQQKRDGTVKLLIYDSSSLHSGVPSRFSGSGSGTDYSLTISNLEPEDFATYFCQQYSNLPPTFGGGTNLEIKR
Kd [2]: 0.123 nM
koff [2]: 5.3e-05 s⁻¹
kon [2]: 432000 M⁻¹ s⁻¹

B3: humanized 23C2 mAb (antibody, human IgG1, kappa, V domains shown)
VH: DVQLQESGPGLVKPSQSLSLTCSVTGYSIKSGYYWNWIRQFPGNKLEWMGYISYGGDFTYNPSLKNRISITRDTSKNQFFLKLNSVTTEDTATYFCVREPNWESYFDIWGAGTTVTVSS
VL: DIQMTQSPASLSASVGETVTITCRASDNIYSYLTWYHQKQGKSPHLLVYNAKTLPEGVPLRFSGTGSGTQFSLKINSLQPEDFGIYFCLHDYGFPRTFGGGTILEVKR
Kd [2]: 1.03 nM
koff [2]: 0.000285 s⁻¹
kon [2]: 275000 M⁻¹ s⁻¹
